Results on one molecule are retold here after publication PMC6045382.

In this series the target is thrombin (UniProt P00734;P00734 328-363;364-622). Nature of the series: 19F NMR.

B1: T9 (19F-labeled TBA) (structured_DNA)
DNA: GGTTGGTGTGGTTGG
modifications: dT9 replaced by 5-[{3,5-bis(trifluoromethyl)phenyl}ethynyl]-2'-deoxyuridine
Take B1: the binding result is “binds”.
